Measured values reported in US20230203177A1 (Bristol-Myers Squibb, published 2023).

Columns and labels:
[1] = biological target: human CD40 on primary human tonsillar B cells (human, UniProt P25942 21-277); assay: cell-based or functional assay
[2] = biological target: T1, soluble human CD40 extracellular domain (human, UniProt P25942 21-193); assay: SPR, purified Ab on protein A, 6 concentrations of hCD40 ECD
T1 construct: Produced in house; also called hCD40; soluble hCD40 extracellular domain
Method: Additionally, to more accurately define the dissociation rate (kd), a longer dissociation time of 360 seconds (s) was used as opposed to the shorter 180 s dissociation that had been used in the supernatant screening experiment.
CD40 binding SPR: SPR studies of the purified antibodies were conducted on BIAcore™ T200 instrument (GE Healthcare, Chicago Ill.). A Series S Protein A sensor chip (GE Healthcare, Chicago Ill.) was equilibrated with SPR running buffer of 10 mM NaPO₄, 130 mM NaCl, 0.05% tween 20, (PBS-T) pH 7.2 at 25° C. The purified antibody samples were diluted to 3 μg/ml in PBS-T and captured on the protein A surface for 30 s at 10 μl/min Binding of 3.91, 7.81, 15.6, 31.3, 62.5, and 125 nM human CD40 extracellular domain (produced in house) was evaluated using association time of 180 s at 30 μl/min, followed by a dissociation time of 360 s at 30 μl/min Regeneration between cycles was accomplished using two 15 s injections of 10 mM glycine pH 1.5. […] Data were analyzed using BIAcore™ T200 evaluation software by fitting to a 1:1 Langmuir model.

[3] = biological target: T1, soluble human CD40 extracellular domain; assay: SPR, Ab captured from supernatant on protein A, hCD40 ECD analyte
Outline: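 Soluble human CD40 extracellular domain flowed at 50/500 nM (or 5/50 nM) over antibody held on protein A at 3 μg/ml, with 180 s on- and off-phases. Run in PBS-T pH 7.2 at 25 °C; kinetics from 1:1 Langmuir model.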

[4] = biological target: T1, soluble human CD40 extracellular domain; assay: SPR, antibody captured from supernatant on protein A chip, soluble hCD40 ECD at 5 and 50 nM (summary table of the 16 chosen antibodies)

T1 sequence (P25942 21-193 limits assumed): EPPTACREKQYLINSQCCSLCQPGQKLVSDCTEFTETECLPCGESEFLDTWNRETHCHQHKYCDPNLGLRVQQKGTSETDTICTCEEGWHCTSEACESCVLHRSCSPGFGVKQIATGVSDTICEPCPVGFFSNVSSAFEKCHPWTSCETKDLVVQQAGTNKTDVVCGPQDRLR
Chain of human CD40 on primary human tonsillar B cells (P25942 21-277 limits assumed): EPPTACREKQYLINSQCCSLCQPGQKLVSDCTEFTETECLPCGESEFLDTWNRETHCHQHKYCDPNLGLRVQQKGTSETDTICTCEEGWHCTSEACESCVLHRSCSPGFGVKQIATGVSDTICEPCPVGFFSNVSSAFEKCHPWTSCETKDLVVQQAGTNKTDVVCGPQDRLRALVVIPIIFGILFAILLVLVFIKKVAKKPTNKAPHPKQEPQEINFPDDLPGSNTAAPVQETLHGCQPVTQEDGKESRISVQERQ

B1: M81 (HC-wt / LC-K107Q,R108Q) (antibody, human IgG1, kappa)
heavy: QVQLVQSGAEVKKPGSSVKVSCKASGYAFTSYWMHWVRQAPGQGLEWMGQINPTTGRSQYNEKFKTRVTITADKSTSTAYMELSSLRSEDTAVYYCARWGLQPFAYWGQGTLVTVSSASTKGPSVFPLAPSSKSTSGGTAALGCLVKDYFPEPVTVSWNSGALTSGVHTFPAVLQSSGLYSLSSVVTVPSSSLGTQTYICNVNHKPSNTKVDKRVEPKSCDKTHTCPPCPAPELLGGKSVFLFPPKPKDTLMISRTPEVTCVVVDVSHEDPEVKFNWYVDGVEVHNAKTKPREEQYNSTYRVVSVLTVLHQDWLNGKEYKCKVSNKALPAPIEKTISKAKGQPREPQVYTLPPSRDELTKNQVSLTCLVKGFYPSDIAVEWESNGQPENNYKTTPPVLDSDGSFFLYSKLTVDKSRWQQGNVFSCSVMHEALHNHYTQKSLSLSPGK
light: DIQMTQSPSFLSASVGDRVTITCKASQDVSTAVAWYQQKPGKAPKLLIYSASYRYTGVPSRFSGSGSGTDFTLTISSLQPEDFATYYCQQHYSTPWTFGGGTKVEIQQTVAAPSVFIFPPSDEQLKSGTASVVCLLNNFYPREAKVQWKVDNALQSGNSQESVTEQDSKDSTYSLSSTLTLSKADYEKHKVYACEVTHQGLSSPVTKSFNRGEC
notes: IgG1-P238K; also called HC1/LC6
- IC50, inhibition of tonsillar human B cell proliferation stimulated by IZ-hCD40L trimer [1]: 0.0007 µg/mL
- IC50, inhibition of tonsillar human B cell proliferation stimulated by hCD40L expressing CHO cells [1]: 0.0257 µg/mL
- Kd [2]: 3 nM
- koff [2]: 0.0007 s⁻¹
- kon [2]: 240000 M⁻¹ s⁻¹
- Kd [3]: 4.1 nM
- Kd [4]: 4.1 nM
